Measurements published in paper PMC12366701.
Blank lines part the entries; values can stand above or below the molecule they belong to.

Experiments:
[1] = target: porcine double-stabilized microtubules (dsMTs) (porcine (endogenous in pig brain)) (UniProt P02550); assay: TIRF microscopy binding assay; porcine dsMTs attached to coverslips via an anti-β-tubulin antibody; 100 nM Janelia Fluor 549-labelled TTLL11 variants in 40 mM tris-HCl pH 7.0, 1 mM TCEP, 1 mM MgCl2, 5% glycerol, casein, 10 μM paclitaxel; 22°C; intensity per μm of MT normalized to the control
[2] = target: AspN-treated porcine dsMTs (β-tubulin C-tail removed) (porcine (endogenous in pig brain)) (UniProt P02550); assay: as above

Chain of UniProt P02550 (P02550 whole entry, chain 1 of 2): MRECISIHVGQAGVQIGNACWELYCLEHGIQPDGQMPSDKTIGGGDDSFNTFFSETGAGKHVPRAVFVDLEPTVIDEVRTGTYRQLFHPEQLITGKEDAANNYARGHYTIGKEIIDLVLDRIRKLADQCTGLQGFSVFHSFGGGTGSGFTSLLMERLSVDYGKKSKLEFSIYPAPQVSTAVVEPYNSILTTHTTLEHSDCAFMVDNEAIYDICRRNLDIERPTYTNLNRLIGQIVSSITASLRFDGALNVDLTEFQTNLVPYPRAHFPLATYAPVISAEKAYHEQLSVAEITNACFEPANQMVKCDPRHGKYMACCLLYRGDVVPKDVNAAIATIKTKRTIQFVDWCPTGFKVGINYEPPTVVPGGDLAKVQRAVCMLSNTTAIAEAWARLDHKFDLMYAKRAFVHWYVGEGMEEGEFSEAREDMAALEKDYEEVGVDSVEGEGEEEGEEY
Chain of UniProt P02550 (P02554 whole entry, chain 2 of 2, further chain): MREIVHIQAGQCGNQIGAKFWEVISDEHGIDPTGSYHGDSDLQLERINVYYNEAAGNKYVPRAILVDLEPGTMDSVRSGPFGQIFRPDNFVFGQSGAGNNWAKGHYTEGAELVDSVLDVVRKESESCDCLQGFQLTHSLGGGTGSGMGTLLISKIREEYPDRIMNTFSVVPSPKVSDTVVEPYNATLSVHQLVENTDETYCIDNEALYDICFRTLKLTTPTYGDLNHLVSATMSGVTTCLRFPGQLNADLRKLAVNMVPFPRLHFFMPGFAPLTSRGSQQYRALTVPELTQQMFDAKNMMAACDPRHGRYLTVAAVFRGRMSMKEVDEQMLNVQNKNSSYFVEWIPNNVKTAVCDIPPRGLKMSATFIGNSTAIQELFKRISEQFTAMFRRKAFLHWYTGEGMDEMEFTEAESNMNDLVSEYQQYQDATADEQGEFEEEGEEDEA

percent reduction of the fluorescence signal intensity [1]: 60%
Molecule: hTTLL11 R601E mutant (from UniProt Q8NHH1 1-710) (enzyme)

percent reduction of the fluorescence signal intensity [1]: 80%
Molecule: hTTLL11 I594W mutant (from UniProt Q8NHH1 1-710) (enzyme)

percent lower fluorescence signal than on intact MTs [2]: 50%
B1: human TTLL11 (hTTLL11), full-length (enzyme)
chain: MRRGSSESELAARWEAEAVAAAKAAAKAEAEATAETVAEQVRVDAGAAGEPECKAGEEQPKVLAPAPAQPSAAEEGNTQVLQRPPPTLPPSKPKPVQGLCPHGKPRDKGRSCKRSSGHGSGENGSQRPVTVDSSKARTSLDALKISIRQLKWKEFPFGRRLPCDIYWHGVSFHDNDIFSGQVNKFPGMTEMVRKITLSRAVRTMQNLFPEEYNFYPRSWILPDEFQLFVAQVQMVKDDDPSWKPTFIVKPDGGCQGDGIYLIKDPSDIRLAGTLQSRPAVVQEYICKPLLIDKLKFDIRLYVLLKSLDPLEIYIAKDGLSRFCTEPYQEPTPKNLHRIFMHLTNYSLNIHSGNFIHSDSASTGSKRTFSSILCRLSSKGVDIKKVWSDIISVVIKTVIALTPELKVFYQSDIPTGRPGPTCFQILGFDILLMKNLKPILLEVNANPSMRIEHEHELSPGVFENVPSLVDEEVKVAVIRDTLRLMDPLKKKRENQSQQLEKPFAGKEDALDGELTSAPDCNANPEAHLPSICLKQVFPKYAKQFNYLRLVDRMANLFIRFLGIKGTMKLGPTGFRTFIRSCKLSSSSLSMAAVDILYIDITRRWNSMTLDQRDSGMCLQAFVEAFFFLAQRKFKMLPLHEQVASLIDLCEYHLSLLDEKRLVCGRGVPSGGRPPHRGPPQEPSPSAQPAGDNPPPRTSCANKLSHPRHTLS
modifications: Janelia Fluor 549-HALO probe on the HALO tag (TIRF assay)
